Measured values from patent US20220298218A1 (ANTAG THERAPEUTICS, published 2022).
*1 amine or outer side, *2 acyl side, *3 side chain or, on linkers, in order; H or OH if unused. Where no end group is shown, it is not given here. Side-chain parts run from the residue outwards. The star is where a group is joined. C18 diacid = O=C(O)CCCCCCCCCCCCCCCCC(=O)*; γGlu = O=C(O)[C@H](CCC(=O)[*:2])N[*:1]; AEEA = NCCOCCOCC(=O)O

T1: human GIP receptor (human, UniProt P48546 22-466)
T1 sequence (looked up): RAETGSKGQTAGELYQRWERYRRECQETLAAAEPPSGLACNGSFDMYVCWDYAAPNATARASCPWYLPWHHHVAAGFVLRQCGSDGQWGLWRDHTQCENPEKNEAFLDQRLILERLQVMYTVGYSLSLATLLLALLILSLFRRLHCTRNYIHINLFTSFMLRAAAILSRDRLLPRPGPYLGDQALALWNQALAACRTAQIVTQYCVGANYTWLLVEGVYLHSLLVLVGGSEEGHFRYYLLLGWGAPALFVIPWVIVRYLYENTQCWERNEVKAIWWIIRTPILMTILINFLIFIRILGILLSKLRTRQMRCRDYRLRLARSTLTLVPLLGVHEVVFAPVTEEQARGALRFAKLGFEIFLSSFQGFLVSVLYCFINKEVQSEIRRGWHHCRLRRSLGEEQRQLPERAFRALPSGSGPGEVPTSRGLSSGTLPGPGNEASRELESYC


Target: T1, human GIP receptor
Experiment: cell-based or functional assay

Binder	cAMP agonism % Emax [%]	cAMP antagonism [nM]	cAMP antagonism % inhib [%]	cAMP antagonism pIC50
TFISDYSK([AEEA-AEEA-γGlu-C18 diacid])AMDKIHQQDFVNWLLAQKGKKNDW-OH (N-terminus assumed; SMILES CC[C@H](C)[C@H](NC(=O)[C@H](CCCCN)NC(=O)[C@H](CC(=O)O)NC(=O)[C@H](CCSC)NC(=O)[C@H](C)NC(=O)[C@H](CCCCNC(=O)COCCOCCNC(=O)COCCOCCNC(=O)CC[C@H](NC(=O)CCCCCCCCCCCCCCCCC(=O)O)C(=O)O)NC(=O)[C@H](CO)NC(=O)[C@H](Cc1ccc(O)cc1)NC(=O)[C@H](CC(=O)O)NC(=O)[C@H](CO)NC(=O)[C@@H](NC(=O)[C@H](Cc1ccccc1)NC(=O)[C@@H](N)[C@@H](C)O)[C@@H](C)CC)C(=O)N[C@@H](Cc1c[nH]cn1)C(=O)N[C@@H](CCC(N)=O)C(=O)N[C@@H](CCC(N)=O)C(=O)N[C@@H](CC(=O)O)C(=O)N[C@@H](Cc1ccccc1)C(=O)N[C@H](C(=O)N[C@@H](CC(N)=O)C(=O)N[C@@H](Cc1c[nH]c2ccccc12)C(=O)N[C@@H](CC(C)C)C(=O)N[C@@H](CC(C)C)C(=O)N[C@@H](C)C(=O)N[C@@H](CCC(N)=O)C(=O)N[C@@H](CCCCN)C(=O)NCC(=O)N[C@@H](CCCCN)C(=O)N[C@@H](CCCCN)C(=O)N[C@@H](CC(N)=O)C(=O)N[C@@H](CC(=O)O)C(=O)N[C@@H](Cc1c[nH]c2ccccc12)C(=O)O)C(C)C) [AT562]	0	3.98	82	8.4
EGTFISDYSIAMDKK([AEEA-AEEA-γGlu-C18 diacid])HQQDFVNWLLAQKPSSGAPPPS-NH2 (N-terminus assumed; SMILES CC[C@H](C)[C@H](NC(=O)[C@H](CO)NC(=O)[C@H](Cc1ccc(O)cc1)NC(=O)[C@H](CC(=O)O)NC(=O)[C@H](CO)NC(=O)[C@@H](NC(=O)[C@H](Cc1ccccc1)NC(=O)[C@@H](NC(=O)CNC(=O)[C@@H](N)CCC(=O)O)[C@@H](C)O)[C@@H](C)CC)C(=O)N[C@@H](C)C(=O)N[C@@H](CCSC)C(=O)N[C@@H](CC(=O)O)C(=O)N[C@@H](CCCCN)C(=O)N[C@@H](CCCCNC(=O)COCCOCCNC(=O)COCCOCCNC(=O)CC[C@H](NC(=O)CCCCCCCCCCCCCCCCC(=O)O)C(=O)O)C(=O)N[C@@H](Cc1c[nH]cn1)C(=O)N[C@@H](CCC(N)=O)C(=O)N[C@@H](CCC(N)=O)C(=O)N[C@@H](CC(=O)O)C(=O)N[C@@H](Cc1ccccc1)C(=O)N[C@H](C(=O)N[C@@H](CC(N)=O)C(=O)N[C@@H](Cc1c[nH]c2ccccc12)C(=O)N[C@@H](CC(C)C)C(=O)N[C@@H](CC(C)C)C(=O)N[C@@H](C)C(=O)N[C@@H](CCC(N)=O)C(=O)N[C@@H](CCCCN)C(=O)N1CCC[C@H]1C(=O)N[C@@H](CO)C(=O)N[C@@H](CO)C(=O)NCC(=O)N[C@@H](C)C(=O)N1CCC[C@H]1C(=O)N1CCC[C@H]1C(=O)N1CCC[C@H]1C(=O)N[C@@H](CO)C(N)=O)C(C)C) [AT586]	0	25.1	80	7.6
TFISDYSIAMDKIK([AEEA-AEEA-γGlu-C18 diacid])QQDFVNWLLAQKGKKNDW-OH (N-terminus assumed; SMILES CC[C@H](C)[C@H](NC(=O)[C@H](CO)NC(=O)[C@H](Cc1ccc(O)cc1)NC(=O)[C@H](CC(=O)O)NC(=O)[C@H](CO)NC(=O)[C@@H](NC(=O)[C@H](Cc1ccccc1)NC(=O)[C@@H](N)[C@@H](C)O)[C@@H](C)CC)C(=O)N[C@@H](C)C(=O)N[C@@H](CCSC)C(=O)N[C@@H](CC(=O)O)C(=O)N[C@@H](CCCCN)C(=O)N[C@H](C(=O)N[C@@H](CCCCNC(=O)COCCOCCNC(=O)COCCOCCNC(=O)CC[C@H](NC(=O)CCCCCCCCCCCCCCCCC(=O)O)C(=O)O)C(=O)N[C@@H](CCC(N)=O)C(=O)N[C@@H](CCC(N)=O)C(=O)N[C@@H](CC(=O)O)C(=O)N[C@@H](Cc1ccccc1)C(=O)N[C@H](C(=O)N[C@@H](CC(N)=O)C(=O)N[C@@H](Cc1c[nH]c2ccccc12)C(=O)N[C@@H](CC(C)C)C(=O)N[C@@H](CC(C)C)C(=O)N[C@@H](C)C(=O)N[C@@H](CCC(N)=O)C(=O)N[C@@H](CCCCN)C(=O)NCC(=O)N[C@@H](CCCCN)C(=O)N[C@@H](CCCCN)C(=O)N[C@@H](CC(N)=O)C(=O)N[C@@H](CC(=O)O)C(=O)N[C@@H](Cc1c[nH]c2ccccc12)C(=O)O)C(C)C)[C@@H](C)CC) [AT563]	0	4.64	80	8.3
EGTFISDYSIAMDKIK([AEEA-AEEA-γGlu-C18 diacid])QQDFVNWLLAQKPSSGAPPPS-NH2 (N-terminus assumed; SMILES CC[C@H](C)[C@H](NC(=O)[C@H](CO)NC(=O)[C@H](Cc1ccc(O)cc1)NC(=O)[C@H](CC(=O)O)NC(=O)[C@H](CO)NC(=O)[C@@H](NC(=O)[C@H](Cc1ccccc1)NC(=O)[C@@H](NC(=O)CNC(=O)[C@@H](N)CCC(=O)O)[C@@H](C)O)[C@@H](C)CC)C(=O)N[C@@H](C)C(=O)N[C@@H](CCSC)C(=O)N[C@@H](CC(=O)O)C(=O)N[C@@H](CCCCN)C(=O)N[C@H](C(=O)N[C@@H](CCCCNC(=O)COCCOCCNC(=O)COCCOCCNC(=O)CC[C@H](NC(=O)CCCCCCCCCCCCCCCCC(=O)O)C(=O)O)C(=O)N[C@@H](CCC(N)=O)C(=O)N[C@@H](CCC(N)=O)C(=O)N[C@@H](CC(=O)O)C(=O)N[C@@H](Cc1ccccc1)C(=O)N[C@H](C(=O)N[C@@H](CC(N)=O)C(=O)N[C@@H](Cc1c[nH]c2ccccc12)C(=O)N[C@@H](CC(C)C)C(=O)N[C@@H](CC(C)C)C(=O)N[C@@H](C)C(=O)N[C@@H](CCC(N)=O)C(=O)N[C@@H](CCCCN)C(=O)N1CCC[C@H]1C(=O)N[C@@H](CO)C(=O)N[C@@H](CO)C(=O)NCC(=O)N[C@@H](C)C(=O)N1CCC[C@H]1C(=O)N1CCC[C@H]1C(=O)N1CCC[C@H]1C(=O)N[C@@H](CO)C(N)=O)C(C)C)[C@@H](C)CC) [AT587]	0	3.98	90	8.4
